Test results from patent US20220033501A1 (SHANGHAI PHARMAEXPLORER, published 2022).

T1: monkey TIM-3 on CHOK1 stable cell line (CHOK1-cTIM-3) (monkey)
T1 chain: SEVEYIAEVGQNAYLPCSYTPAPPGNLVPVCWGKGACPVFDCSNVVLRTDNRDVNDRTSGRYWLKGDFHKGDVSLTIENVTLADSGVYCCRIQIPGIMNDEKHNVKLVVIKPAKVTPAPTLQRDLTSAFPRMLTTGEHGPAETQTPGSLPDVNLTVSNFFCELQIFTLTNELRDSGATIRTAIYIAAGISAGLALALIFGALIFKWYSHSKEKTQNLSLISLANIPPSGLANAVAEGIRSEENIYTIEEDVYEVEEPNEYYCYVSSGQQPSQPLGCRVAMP

T2: murine TIM-3 protein with hFc tag (mTIM-3-hFc protein) (mouse; human, UniProt Q8VIM0 29-191)
T2 construct: Made in HEK293 cells; also called mouse TIM-3 extracellular domain protein; not shown: human IgG Fc fragment (hFc) of the pCpC vector
T2 chain: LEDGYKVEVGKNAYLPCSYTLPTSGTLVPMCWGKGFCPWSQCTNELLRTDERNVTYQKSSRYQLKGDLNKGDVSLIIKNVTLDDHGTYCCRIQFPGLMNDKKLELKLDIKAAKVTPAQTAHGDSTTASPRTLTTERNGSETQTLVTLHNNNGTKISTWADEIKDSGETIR

T3: TIM-3 protein on human peripheral blood mononuclear lymphocytes (PBMC) (human, UniProt Q8TDQ0 22-301)
T3 sequence: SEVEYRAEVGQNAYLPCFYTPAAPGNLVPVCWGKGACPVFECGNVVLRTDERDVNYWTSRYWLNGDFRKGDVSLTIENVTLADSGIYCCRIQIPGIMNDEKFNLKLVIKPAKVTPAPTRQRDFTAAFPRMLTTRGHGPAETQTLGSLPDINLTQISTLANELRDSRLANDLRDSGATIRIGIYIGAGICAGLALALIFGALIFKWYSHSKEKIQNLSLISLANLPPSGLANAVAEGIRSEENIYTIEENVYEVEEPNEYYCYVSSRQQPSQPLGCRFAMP


What was measured:
[1] = target: T1, monkey TIM-3 on CHOK1 stable cell line …; experiment: FACS, CHOK1-cTIM-3 cells, 0 nM antibody
From the text: (§1) The pIRES plasmid containing the full-length nucleotide sequence encoding human TIM-3 as described in Example 1 was transfected into CHOK1 cell line to obtain a CHOK1 stable cell line containing human TIM-3 (herein referred to as CHOK1-hTIM-3 stable cell line). The pIRES plasmid containing the full-length gene of monkey TIM-3 was transfected into CHOK1 cell line to construct a CHOK1 stable cell line containing monkey TIM-3 (herein referred to as CHOK1-cTIM-3 stable cell line). The CHOK1-hTIM-3 stable cell line and CHOK1-cTIM-3 stable cell line were expanded to a confluence of 90% in a T-75 cell culture flask. The medium was aspirated, and the cells were washed with HBSS (Hanks' Balanced Salt Solution) 1-2 times, and then treated with an enzyme-free cell dissociation solution (Versene solution: Life technology) and the cells were collected. The cells were washed with HBSS buffer for 1-2 times. After counted, the cells were diluted with HBSS to 1-2×10⁶ cells per ml, added with 1% goat serum blocking solution, incubated on ice for 20-30 minutes, and then washed with HBSS by centrifugation 2 times. The collected cells were suspended in the FACS buffer (HBSS+1% BSA) to 2×10⁶ cells/ml, added as 100 microliters per well to a 96-well FACS reaction plate, added with 100 microliters per well of the antibody sample to be tested, incubated on ice for 1-2 hours. The plate was washed twice with the FACS buffer by centrifugation, added with 100 microliters of fluorescent (Alexa 488)-labeled secondary antibodies per well, and incubated on ice for 0.5-1.0 hours. The plate was washed 2-3 times with FACS buffer by centrifugation, added with 100 μl fixative solution (4% Paraformaldehyde) per well to suspend the cells. 5-10 minutes later, it was washed 1-2 times with FACS buffer by centrifugation. The cells were suspended with 100 microliters of FACS buffer, FACS (FACSCalibur, BD) was used for detection and the results were analyzed. The results are shown in FIGS. 7 and 8, Tables 7 and 8, wherein the IgG control is rat IgG, and the data in the table are the average fluorescence intensity values of the cell populations measured by MFI.

[2] = target: T1, monkey TIM-3 on CHOK1 stable cell line …; experiment: FACS, CHOK1-cTIM-3 cells, 8 nM antibody
From the text: as §1

[3] = target: T1, monkey TIM-3 on CHOK1 stable cell line …; experiment: FACS, CHOK1-cTIM-3 cells, 40 nM antibody
From the text: as §1

[4] = target: T1, monkey TIM-3 on CHOK1 stable cell line …; experiment: FACS, CHOK1-cTIM-3 cells, 1.6 nM antibody
From the text: as §1

[5] = target: T1, monkey TIM-3 on CHOK1 stable cell line …; experiment: FACS, CHOK1-cTIM-3 cells, 200 nM antibody
From the text: as §1

[6] = target: T1, monkey TIM-3 on CHOK1 stable cell line …; experiment: FACS, CHOK1-cTIM-3 cells, 0.32 nM antibody
From the text: as §1

[7] = target: T1, monkey TIM-3 on CHOK1 stable cell line …; experiment: FACS, CHOK1-cTIM-3 cells, 0.013 nM antibody
From the text: as §1

[8] = target: T1, monkey TIM-3 on CHOK1 stable cell line …; experiment: FACS, CHOK1-cTIM-3 cells, 0.064 nM antibody
From the text: as §1

[9] = target: T2, murine TIM-3 protein with hFc tag …; experiment: ELISA, coated mTIM-3-hFc
[10] = target: T3, TIM-3 protein on human peripheral blood …; experiment: cell-based or functional assay

Binder	Mean fluorescence intensity [1]	Mean fluorescence intensity [2]	Mean fluorescence intensity [3]	Mean fluorescence intensity [4]	Mean fluorescence intensity [5]	Mean fluorescence intensity [6]	Mean fluorescence intensity [7]	Mean fluorescence intensity [8]	binding result [9]	IFN production; antibody 0.001 µg/ml (4th head as printed), N = 1 [10]	IFN production; antibody 0.001 µg/ml (4th head as printed), N = 2 [10]	IFN production; antibody 0.001 µg/ml (5th head as printed), N = 1 [10]	IFN production; antibody 0.001 µg/ml (5th head as printed), N = 2 [10]	IFN production; antibody 0.1 µg/ml, N = 1 [10]	IFN production; antibody 0.1 µg/ml, N = 2 [10]	IFN production; antibody 1 µg/ml, N = 1 [10]	IFN production; antibody 1 µg/ml, N = 2 [10]	IFN production; antibody 10 µg/ml, N = 1 [10]	IFN production; antibody 10 µg/ml, N = 2 [10]
18D2H2 TIM-3 antibody purified from hybridoma supernatant (chimeric antibody of Example 2) (antibody, V domains shown) VH: EVQLVESGGDLVQPGGSLRLSCAASGFTFSTYWMTWVRQAPGRGLEWVANIKQDGSAKYYVDSVKGRFTLSRDDAKNSLYLQMNSLRAEDTAVYYCARGSNWFDYWGQGTLVTVSS VL: ETVMTQSPATLSVSPGERATLSCRANQNVYSNLAWYQQKPGQAPRLLIYDASTRATGFPARFSGSGSGTEFTLTISSLQSEDFAVYYCQQYNNWPLTFGGGTKVEIK	3.2	92.2	186	35.8	203	14.4	4.3	6.9											
18D2H2 fully human TIM-3 antibody (human IgG4, kappa) (antibody, V domains shown) VH: EVQLVESGGDLVQPGGSLRLSCAASGFTFSTYWMTWVRQAPGRGLEWVANIKQDGSAKYYVDSVKGRFTLSRDDAKNSLYLQMNSLRAEDTAVYYCARGSNWFDYWGQGTLVTVSS VL: ETVMTQSPATLSVSPGERATLSCRANQNVYSNLAWYQQKPGQAPRLLIYDASTRATGFPARFSGSGSGTEFTLTISSLQSEDFAVYYCQQYNNWPLTFGGGTKVEIK									no binding (tested: 66.667 nM)										
57F4E5 TIM-3 antibody purified from hybridoma supernatant (chimeric antibody of Example 2) (antibody, V domains shown) VH: EVQLVESGGGLVQPGGSLRLSCAASGFTFSSYWMSWVRQAPGKGLEWVANIKQDGSEKYYVDSVKGRFTISRDSAKNSLYLQMNSLRAEDTAMYFCARDSNFFDYWGQGTLVTVSS VL: ETVMTQSPATLSVSPGERATLSCRASQSVSSNLAWYQRKPGQAPRLLIYFSSTRATGIPARFSGSGSGTEFTLTISSLQSEDFAVYYCQQYNNWPLTFGGGTKVEIK	3.2	704	699	460	675	185	22.2	59.6											
134H3G6 fully human TIM-3 antibody (human IgG4, kappa) (antibody, V domains shown) VH: EVQLVESGGGLVQPGGSLRLSCAASGFTFSNSWMTWVRQAPGKGLEWVANIKQAGTEKYYVDSVKGRFTISRDNAKNSLYLQMNSLRAEDTAVYYCNSGSNYFDYWGQGTLVTVSS VL: EIVMTQSPATLSVSPGERATLSCRARQNFYSNLAWYQQKPGQAPRLLIYGASTRATGIPARFSGSGSGTEFTLTISSLQSEDFAVYYCQQYNNWPLTFGGGTKVEIK									no binding (tested: 66.667 nM)										
7A4F10 TIM-3 antibody purified from hybridoma supernatant (chimeric antibody of Example 2) (antibody, V domains shown) VH: EVQLLESGGGLVQPGGSLRLSCAASGFTFRTHLISWVRQAPGKGLEWVAAITGSGGSTYYADSVKGRFIISRDNSKNTLFLQMNSLRAEDTAVYYCAKDGGSGSYDDFWGQGTLVTVSS VL: ETVLTQSPVTLSLSPGERATLSCRASQSVGSYLAWYQQKPGQAPRLLIYDASNRATGIPARFSGSGSGTDFTLTISSLEPEDFAVYYCQQRSNWPPTFGQGTKVEIK	3.2	90	163	29.1	147	11.3	4.1	5.9		672 pg/mL	719 pg/mL	666 pg/mL	756 pg/mL	758 pg/mL	873 pg/mL	1010 pg/mL	1160 pg/mL	848 pg/mL	1010 pg/mL
7A4F10 fully human TIM-3 antibody (human IgG4, kappa) (antibody, V domains shown) VH: EVQLLESGGGLVQPGGSLRLSCAASGFTFRTHLISWVRQAPGKGLEWVAAITGSGGSTYYADSVKGRFIISRDNSKNTLFLQMNSLRAEDTAVYYCAKDGGSGSYDDFWGQGTLVTVSS VL: ETVLTQSPVTLSLSPGERATLSCRASQSVGSYLAWYQQKPGQAPRLLIYDASNRATGIPARFSGSGSGTDFTLTISSLEPEDFAVYYCQQRSNWPPTFGQGTKVEIK									no binding (tested: 66.667 nM)										
215A8F2 TIM-3 antibody purified from hybridoma supernatant (chimeric antibody of Example 2) (antibody, V domains shown) VH: QVQLQQWGAGLLKPSETLSLTCTVYGGSFSGYYWNWIRQPPGKGLEWLGEINHSGSTNYNPSLKRRVTISVDTSKNQFSLKLSSVTAADTAVYYCARVYYYGPFDFWGQGTLVTVSS VL: not shown	3.2	733	976	330	961	108	13.6	34.7		782 pg/mL	753 pg/mL	791 pg/mL	741 pg/mL	840 pg/mL	901 pg/mL	1020 pg/mL	1070 pg/mL	943 pg/mL	1070 pg/mL
215A8F2 fully human TIM-3 antibody (human IgG4, kappa) (antibody, V domains shown) VH: QVQLQQWGAGLLKPSETLSLTCTVYGGSFSGYYWNWIRQPPGKGLEWLGEINHSGSTNYNPSLKRRVTISVDTSKNQFSLKLSSVTAADTAVYYCARVYYYGPFDFWGQGTLVTVSS VL: not shown									no binding (tested: 66.667 nM)										
